In this experiment the target is mouse pendrin (SLC26A4), full length (mouse). In words: cryo-EM structure; single-particle cryo-EM of purified pendrin in 0.02% GDN, about 1.7 mg/mL, pH 8.0-8.3; samples in 150 mM NaCl (pendrin-Cl), NaHCO3 (pendrin-HCO3), Cl/HCO3, Cl/I and HCO3/I; symmetric and asymmetric homodimers.

Take “mouse pendrin (SLC26A4), full length (natural protein)”: the stoichiometry N (in general, the number of molecules, sites or subunits per partner or assembly) was determined as 2.

Source of the values: publication PMC10213058.
